Data on 2 molecules can be found in PMC3082911 (Nucleic Acids Research, 2010).

The target of test [1] is myc-tagged PSF (full-length) (UniProt Q8VIJ6). In words: co-IP.
In test [2] the target is T1, myc-tagged PSF (full-length) (UniProt Q8VIJ6 1-699).
T1 sequence: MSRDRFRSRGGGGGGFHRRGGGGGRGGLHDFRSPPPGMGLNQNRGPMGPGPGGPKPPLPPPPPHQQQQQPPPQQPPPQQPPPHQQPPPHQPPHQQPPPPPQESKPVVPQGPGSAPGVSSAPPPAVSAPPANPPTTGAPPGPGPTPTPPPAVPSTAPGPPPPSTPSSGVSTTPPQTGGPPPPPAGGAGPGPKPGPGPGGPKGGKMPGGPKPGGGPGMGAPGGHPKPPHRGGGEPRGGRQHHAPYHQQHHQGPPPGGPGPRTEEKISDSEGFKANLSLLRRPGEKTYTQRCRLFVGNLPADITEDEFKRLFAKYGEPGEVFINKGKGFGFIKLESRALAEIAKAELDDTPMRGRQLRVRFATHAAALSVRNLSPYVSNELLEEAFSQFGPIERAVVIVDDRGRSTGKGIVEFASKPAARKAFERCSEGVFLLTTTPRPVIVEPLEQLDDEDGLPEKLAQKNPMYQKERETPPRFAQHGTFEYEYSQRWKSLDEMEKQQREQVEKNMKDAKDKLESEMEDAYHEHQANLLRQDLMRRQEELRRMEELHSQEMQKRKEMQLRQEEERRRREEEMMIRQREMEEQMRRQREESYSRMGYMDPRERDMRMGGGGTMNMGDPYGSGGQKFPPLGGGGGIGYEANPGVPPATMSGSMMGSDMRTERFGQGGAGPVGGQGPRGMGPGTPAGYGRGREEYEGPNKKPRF
In words: co-IP.

In test [1], “myc-tagged Fox-3-S (from UniProt Q8BIF2-5 1-327) (natural protein)” had a fold more efficiently pulled down by PSF than Fox-1 of 7 fold and a fold more efficiently pulled down by PSF than Fox-2 of 2.7 fold.

B1: myc–Fox-3-L (natural protein)
chain: MAQPYPPAQYPPPPQNGIPAEYAPPPPHPTQDYSGQTPVPPEHGMTLYTPAQTHPEQPGTEASTQPIAGTQTVPQADEAAQTDNQQLHPSDPTEKQQPKRLHVSNIPFRFRDPDLRQMFGQFGKILDVEIIFNERGSKGFGFVTFETSSDADRAREKLNGTIVEGRKIEVNNATARVMTNKKPGNPYANGWKLNPVVGTVYGPEFYAVTSFPYPTTGTAVAYRGAHLRGRGRAVYNTFRAAPPPPPIPTYGAALEQTLVKMPVPWAGLAPCPLPPQQTPEPAYPTSPAFPPLSCPFASRVVYQDGFYGAEIYGGYAAYRYAQPAAATAAAYSDSYGRVYAAADPYHHTIGPTATYSIGTMASLCRGGYSRFTPY
As for B1, in test [2], the “fold more efficiently pulled down by PSF than Fox-1” value was 7 fold and the “fold more efficiently pulled down by PSF than Fox-2” value worked out at 2.7 fold.
